Laboratory results from patent US20260049138A1 (Chugai, published 2026).

How the values were obtained:
CD3ε homodimer protein [1] = target: T1, CD3ε homodimer protein (human, UniProt P07766 23-126, limits assumed, sulfo-tag or biotin label in the ECL assays; amine-coupled to the chip in SPR); test: SPR Biacore T200; CD3ε homodimer on CM4 chip;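 further: Single-residue variant antibodies injected as analyte over CD3ε homodimer immobilized by amine coupling, run at 25 °C in HBS-EP+ buffer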
T1 construct: also called human CD3ε homodimer protein; CD3 (CD3ε)
T1 sequence (P07766 23-126 limits assumed): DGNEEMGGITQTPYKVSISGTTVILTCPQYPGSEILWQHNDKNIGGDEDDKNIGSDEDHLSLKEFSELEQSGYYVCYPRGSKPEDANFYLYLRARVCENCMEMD

CD3ε homodimer protein [2] = target: T2, CD3ε homodimer protein (human, UniProt P07766 23-126, limits assumed); test: SPR Biacore T200, CD3ε homodimer on chip;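 further: Light-chain single-residue variant antibodies injected over amine-coupled CD3ε homodimer on a CM4 chip at 25 °C, bound amount divided by that of the GLS3000-containing antibody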
T2 construct: also called CD3 (CD3ε)
T2 sequence (P07766 23-126 limits assumed): as above

Row | ratio of amounts bound Z=Y/X (altered form / CE115HA000) (CD3ε homodimer protein [1]) | ratio of amount bound vs unaltered GLS3000 (CD3ε homodimer protein [2]) | Binder
1 | 0.17 |  | CE115HA000 H35A one-arm antibody (antibody, human IgG1, kappa, L234A L235A, N297A, name in Kabat numbering) heavy: QVQLVESGGGVVQPGRSLRLSCAASGFTFSNAWMAWVRQAPGKGLEWVAQIKAKSNNYATYYAESVKGRFTISRDDSKNSLYLQMNSLKTEDTAVYYCRYVHYGAYYGVDAWGQGTTVTVSSASTKGPSVFPLAPSSKSTSGGTAALGCLVKDYFPEPVTVSWNSGALTSGVHTFPAVLQSSGLYSLSSVVTVPSSSLGTQTYICNVNHKPSNTKVDKKVEPKSCDKTHTCPPCPAPEAAGGPSVFLFPPKPKDTLMISRTPEVTCVVVDVSHEDPEVKFNWYVDGVEVHNAKTKPREEQYASTYRVVSVLTVLHQDWLNGKEYKCKVSNKALPAPIEKTISKAKGQPREPQVYTLPPSRCELTKNQVSLSCAVKGFYPSDIAVEWESNGQPENNYKTTPPVLDSDGSFFLVSKLTVDKSRWQQGNVFSCSVMHEALHNHYTQKSLSLSPDYKDDDDK EPKSSDKTHTCPPCPAPELLGGPSVFLFPPKPKDTLMISRTPEVTCVVVDVSHEDPEVKFNWYVDGVEVHNAKTKPREEQYNSTYRVVSVLTVLHQDWLNGKEYKCKVSNKALPAPIEKTISKAKGQPREPQVCTLPPSRDELTKNQVSLWCLVKGFYPSDIAVEWESNGQPENNYKTTPPVLDSDGSFFLYSKLTVDKSRWQQGNVFSCSVMHEALHNRYTQKSLSLSP light: DIVMTQSPLSLPVTPGEPASISCRSSQSLVHSNRNTYLHWYQQKPGQAPRLLIYKVSNRFSGVPDRFSGSGSGTDFTLKISRVEAEDVGVYYCGQGTQVPYTFGQGTKLEIKRTVAAPSVFIFPPSDEQLKSGTASVVCLLNNFYPREAKVQWKVDNALQSGNSQESVTEQDSKDSTYSLSSTLTLSKADYEKHKVYACEVTHQGLSSPVTKSFNRGEC
2 |  | 0.75 | GLS3000 Q45E one-arm antibody (antibody) chain 1: DIVMTQSPLSLPVTPGEPASISCRSSQSLVHSNRNTYLHWYQQKPGQAPELLIYKVSNRFSGVPDRFSGSGSGTDFTLKISRVEAEDVGVYYCGQGTQVPYTFGQGTKLEIKRTVAAPSVFIFPPSDEQLKSGTASVVCLLNNFYPREAKVQWKVDNALQSGNSQESVTEQDSKDSTYSLSSTLTLSKADYEKHKVYACEVTHQGLSSPVTKSFNRGEC chain 2: QVQLVESGGGVVQPGRSLRLSCAASGFTFSNAWMHWVRQAPGKGLEWVAQIKAKSNNYATYYAESVKGRFTISRDDSKNSLYLQMNSLKTEDTAVYYCRYVHYGAYYGVDAWGQGTTVTVSSASTKGPSVFPLAPSSKSTSGGTAALGCLVKDYFPEPVTVSWNSGALTSGVHTFPAVLQSSGLYSLSSVVTVPSSSLGTQTYICNVNHKPSNTKVDKKVEPKSCDKTHTCPPCPAPEAAGGPSVFLFPPKPKDTLMISRTPEVTCVVVDVSHEDPEVKFNWYVDGVEVHNAKTKPREEQYASTYRVVSVLTVLHQDWLNGKEYKCKVSNKALPAPIEKTISKAKGQPREPQVYTLPPSRCELTKNQVSLSCAVKGFYPSDIAVEWESNGQPENNYKTTPPVLDSDGSFFLVSKLTVDKSRWQQGNVFSCSVMHEALHNHYTQKSLSLSPDYKDDDDK chain 3: EPKSSDKTHTCPPCPAPELLGGPSVFLFPPKPKDTLMISRTPEVTCVVVDVSHEDPEVKFNWYVDGVEVHNAKTKPREEQYNSTYRVVSVLTVLHQDWLNGKEYKCKVSNKALPAPIEKTISKAKGQPREPQVCTLPPSRDELTKNQVSLWCLVKGFYPSDIAVEWESNGQPENNYKTTPPVLDSDGSFFLYSKLTVDKSRWQQGNVFSCSVMHEALHNRYTQKSLSLSP
